{
  "source": "patent US9512196B2",
  "about": "“Short-form human MD-2 as a negative regulator of toll-like receptor 4 signaling” (Cedars-Sinai Medical Center, priority 2008, dated 2016)",
  "target": "T1, TLR4 (Homo sapiens, UniProt O00206)",
  "T1 construct": "expressed in transfected cells; host or cells: HEK293",
  "T1 sequence (O00206 24-839)": "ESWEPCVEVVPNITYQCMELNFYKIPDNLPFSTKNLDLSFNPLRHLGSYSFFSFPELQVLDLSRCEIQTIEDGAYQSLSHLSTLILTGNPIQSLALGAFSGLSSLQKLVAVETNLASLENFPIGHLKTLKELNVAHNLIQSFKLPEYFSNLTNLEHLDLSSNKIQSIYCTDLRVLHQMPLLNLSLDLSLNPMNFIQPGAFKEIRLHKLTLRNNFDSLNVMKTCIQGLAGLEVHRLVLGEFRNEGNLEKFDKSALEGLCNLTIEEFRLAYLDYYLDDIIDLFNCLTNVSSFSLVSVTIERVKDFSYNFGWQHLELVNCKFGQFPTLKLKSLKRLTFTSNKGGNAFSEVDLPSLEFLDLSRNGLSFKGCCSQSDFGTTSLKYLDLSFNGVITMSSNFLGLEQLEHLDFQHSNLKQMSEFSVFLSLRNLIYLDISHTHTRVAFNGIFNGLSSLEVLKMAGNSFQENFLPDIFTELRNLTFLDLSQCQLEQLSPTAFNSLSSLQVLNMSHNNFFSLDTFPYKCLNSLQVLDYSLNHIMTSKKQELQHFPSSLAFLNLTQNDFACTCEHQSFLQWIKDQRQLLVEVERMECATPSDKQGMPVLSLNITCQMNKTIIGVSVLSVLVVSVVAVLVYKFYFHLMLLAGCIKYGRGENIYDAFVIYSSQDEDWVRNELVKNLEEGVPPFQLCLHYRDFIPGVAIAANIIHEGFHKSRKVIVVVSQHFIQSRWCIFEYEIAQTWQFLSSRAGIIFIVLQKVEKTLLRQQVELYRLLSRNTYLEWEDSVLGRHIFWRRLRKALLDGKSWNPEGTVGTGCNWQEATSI",
  "assay": "Co-immunoprecipitation with Flag-tagged TLR4 in HEK293 cells",
  "type": "binding",
  "conditions": "Myc-tagged protein, anti-Flag co-immunoprecipitation",
  "procedure": "(A) Cells stably expressing CFP-tagged TLR4 were transiently transfected with plasmids encoding wild-type MD-2 (upper panels) or MD-2s (lower panels). 24 h later, cells were incubated with an anti-Myc antibody and cross-liked with Alexa 647-conjugated anti-mouse polyclonal secondary antibody. (B) HEK293 cells were transiently transfected with a plasmid encoding for Flag-tagged TLR4 (lane 2) and cotransfected with either a Myc-tagged MD-2 (lane 3) or a Myc-tagged MD-2s (lanes 1 and 4) expressing plasmid. Co-immunoprecipitation experiments were then performed using an anti-Flag antibody (lanes 2-4) or an IgG isotype control antibody (lane 1). Samples were fractionated by SDS-PAGE and immunoblotting with an anti-Myc antibody was performed. Experiment shown is representative of 4 separate experiments.\nHEK 293 cells were seeded into 100 mm dishes (1.5×10^6) 24 h prior to transfection. Transfections were performed according to the manufacturer's instructions using lipofectamine. […] For immunoblotting, primary antibodies were detected using horseradish peroxidase-conjugated secondary antibodies, followed by enhanced chemiluminescence (Amersham Biosciences).\nTo address this possibility, co-localization studies to examine the cellular distribution of MD-2s with respect to TLR4 were performed. […] Next whether MD-2s is physically associated with TLR4 was assessed. […]",
  "data": [
    {"molecule": "MD-2s: alternatively spliced isoform of human MD-2 lacking exon 2, with D38G substitution; expressed and secreted protein sequences in Table 1 (protein, listed as Homo sapiens) chain 1: MLPFLFFSTLFSSIFTEAQKQYWVCNSSDASISYTYCGRDLKQLYFNLYITVNTMNLPKRKEVICRGSDDDYSFCRALKGETVNTTISFSFKGIKFSKGKYKCVVEAISGSPEEMLFCLEFVILHQPNSN chain 2: EAQKQYWVCNSSDASISYTYCGRDLKQLYFNLYITVNTMNLPKRKEVICRGSDDDYSFCRALKGETVNTTISFSFKGIKFSKGKYKCVVEAISGSPEEMLFCLEFVILHQPNSN", "values": [
      {"measurement": "Interaction with TLR4", "result": "direct interaction between MD-2s and TLR4 was observed"}
    ]}
  ]
}
